The record followed here is publication PMC3534766.

The data set has as its target FUS-RRM wild type (Homo sapiens, UniProt P35637 278-385). The experiment in a line: NMR titration.

FUS-RRM wild type, sequence (P35637 278-385): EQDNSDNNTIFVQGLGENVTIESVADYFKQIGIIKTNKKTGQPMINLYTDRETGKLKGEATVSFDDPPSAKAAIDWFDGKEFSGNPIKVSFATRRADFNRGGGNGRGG

B1: 24-mer d(TTAGGG)4 (NMR) (structured_DNA)
DNA: TTAGGGTTAGGGTTAGGGTTAGGG
Consider B1, for which the binding result is “binds”.
